The source of these data is article PMC5605669 (2017).

The chains are these.
B1: APOBEC3G, wild type [human] / itself (parent complex)
chain: MKPHFRNTVERMYRDTFSYNFYNRPILSRRNTVWLCYEVKTKGPSRPPLDAKIFRGQVYSELKYHPEMRFFHWFSKWRKLHRDQEYEVTWYISWSPCTKCTRDMATFLAEDPKVTLTIFVARLYYFWDPDYQEALRSLCQKRDGPRATMKIMNYDEFQHCWSKFVYSQRELFEPWNNLPKYYILLHIMLGEILRHSMDPPTFTFNFNNEPWVRGRHETYLCYEVERMHNDTWVLLNQRRGFLCNQAPHKHGFLEGRHAELCFLDVIPFWKLDLDQDYRVTCFTSWSPCFSCAQEMAKFISKNKHVSLCIFTARIYDDQGRCQEGLRTLAEAGAKISIMTYSEFKHCWDTFVDHQGCPFQPWDGLDEHSQDLSGRLRAILQNQEN

In the experiment the parent is B1. Description: single-molecule ssDNA binding curves fit with two-step binding model (k2 from k slow); parent: 0.007; read off a plot.
Turning to chain 1 R313A, chain 1 D316A, chain 1 D317A, chain 1 Q318A, the screen value was about 0.0057 s⁻¹. With chain 1 I314A, chain 1 Y315A, the screen value is about 0.0066 s⁻¹.
